Results taken from patent US20110301073.

Assays:
Test in all cases: cell_activity
[1] = system: POU5F1 TALEN 101225 (NN half repeat) (Xanthomonas sp. (engineered)); conditions: paired with 101125; NN half repeat
[2] = system: POU5F1 TALEN 101229 (half repeat for G) (Xanthomonas sp. (engineered)); conditions: paired with 101138
[3] = system: POU5F1 TALEN 101138 (Xanthomonas sp. (engineered)); conditions: paired with 101229
[4] = system: TALEN 101126 (synthetic (Xanthomonas TALE)); conditions: paired with 101124
[5] = system: POU5F1 TALEN 101125 (Xanthomonas sp. (engineered)); conditions: paired with 101225
[6] = system: TALEN 101124 (synthetic (Xanthomonas TALE)); conditions: paired with 101126

CACCTGCAGCTGCCCAG (double strand) [101225 site]
activity [1]: 5 % NHEJ

CCCCCATTCCTAGAAGG (double strand) [101229 site]
activity [2]: 25.6 % NHEJ

CTGGGCTCTCCCAT (double strand) [101138 site]
activity [3]: 25.6 % NHEJ

GACCCTGCCTGCT (double strand) [101126 site]
activity [4]: 2.2 % NHEJ

GACCCTGCCTGCTCCT (double strand) [101125 site]
activity [5]: 5 % NHEJ

GCAGCTGCCCAGACCT (double strand) [101124 site]
activity [6]: 2.2 % NHEJ
